Square brackets hold non-standard residues; d marks the D form. Ends that are not written are not given here.
How the values were obtained:
Test in all cases: fluorescence polarisation + other: time-gated luminescence intensity (TGLI); binding/displacement assay in solution with the probes ARC-1451, ARC-1188 or ARC-583; 20 min at 30 °C; 50 mM HEPES pH 7.4, 150 mM NaCl, 5 mM dithiothreitol, 0.5 mg/mL BSA, 0.005% Tween-20; N = 2
Conditions in all cases: both partners purified
[1] = molecular target: catalytic subunit α of protein kinase A (human, UniProt P17612 1-351)
protein kinase PIM-3 = protein kinase PIM-3 (human, UniProt Q86V86 1-326)
protein kinase PIM-2 = protein kinase PIM-2 (human, UniProt Q9P1W9 1-311)
protein kinase PIM-1 = protein kinase PIM-1 (human, UniProt P11309 1-313)
Sequence of protein kinase PIM-1 (P11309 whole entry): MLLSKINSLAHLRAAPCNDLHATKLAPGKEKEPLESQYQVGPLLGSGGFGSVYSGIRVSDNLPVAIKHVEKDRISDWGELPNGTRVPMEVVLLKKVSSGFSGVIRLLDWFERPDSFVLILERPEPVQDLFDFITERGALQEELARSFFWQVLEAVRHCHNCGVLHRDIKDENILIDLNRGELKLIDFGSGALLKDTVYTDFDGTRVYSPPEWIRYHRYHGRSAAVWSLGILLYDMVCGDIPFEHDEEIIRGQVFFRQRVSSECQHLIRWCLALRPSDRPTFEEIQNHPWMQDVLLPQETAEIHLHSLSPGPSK

Sequence of protein kinase PIM-2 (Q9P1W9 whole entry): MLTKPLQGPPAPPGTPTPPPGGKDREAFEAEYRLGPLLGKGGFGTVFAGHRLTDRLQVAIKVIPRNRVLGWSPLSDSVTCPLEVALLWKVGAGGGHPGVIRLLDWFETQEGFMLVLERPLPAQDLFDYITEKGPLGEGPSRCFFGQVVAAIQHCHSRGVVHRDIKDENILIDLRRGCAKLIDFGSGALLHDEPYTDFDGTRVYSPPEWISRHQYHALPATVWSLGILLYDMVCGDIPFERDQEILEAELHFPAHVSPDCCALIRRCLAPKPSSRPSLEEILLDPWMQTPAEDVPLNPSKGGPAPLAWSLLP

Kd [1]: > 89 µM
Kd (protein kinase PIM-3): > 16.4 µM
Kd (protein kinase PIM-2): > 46 µM
Kd (protein kinase PIM-1): > 11.5 µM
B1: PIM peptide, (D-Arg)2-Gly-D-Arg-D-Lys-NH2 (peptide)
peptide: [dR][dR]G[dR][dK]-NH2
modifications: N-terminus assumed
SMILES: N=C(N)NCCC[C@@H](N)C(=O)N[C@H](CCCNC(=N)N)C(=O)NCC(=O)N[C@H](CCCNC(=N)N)C(=O)N[C@H](CCCCN)C(N)=O
notes: printed in three-letter code as (D-Arg)2-Gly-D-Arg-D-Lys-NH2; All chiral residues are D-amino acids; This is the peptide part of compounds 1-5, without the adenosine analogue moiety and the linker; also called designed peptide mimetic moiety of compounds 1-5; source: synthetic peptide (Fmoc solid-phase synthesis on Rink amide resin, HPLC purified)
